In article PMC8231783:

Molecular target: transient receptor potential (TRP) channels
Assay: SPR; plasmonic tilted fiber Bragg grating (fiber-optic SPR) probe; TRP immobilised on the 50 nm gold film through 11-mercaptoundecanoic acid and EDC/NHS; CaM (0.1 nM to 10 uM) injected in a microfluidic capillary; 50 mM Tris-HCl, 100 mM NaCl, 1 mM DTT, 1 mM CaCl2, pH 7.5; read-out is the intensity change of a cladding mode

intensity change of the selected cladding mode at 1 uM CaM, 30 min: 1.7 dB
Substance: calmodulin (from UniProt P0DP23 1-149) (natural protein)
